Data: patent US20240189408A1, “COMPOSITIONS AND METHODS FOR REDUCING METHANE EMISSIONS IN RUMINANT POPULATIONS” (Arkea Bio Corp., priority 2022, published 2024)
Several values for one entry are separate records, joined by “and”; a condition that tells them apart may be missing. Identical values can stand only once.

Columns and labels:
[1] = LNP size and polydispersity by DLS (Malvern Panalytical); assay type: physicochemical; details: mRNA LNPs, Example 6
Protocol: (§1) To prepare lipid nanoparticles (LNPs), the mRNA stocks were thawed on ice. Nucleic acid concentrations were validated by absorbance at 260 nm using a NanoDrop. The mRNAs were then diluted to a final concentration of 0.35 mg/mL mRNA in Precision Nanosystem's dilution buffer. 10 mL of the dilute mRNAs were loaded into separate Luer lock syringes and all bubbles were removed by gentle tapping. A NanoAssemblr Ignite NxGen Cartridge was loaded into the cartridge slot of the Ignite instrument (FIG. 8A, 801) and one mRNA syringe was attached to the aqueous inlet of the cartridge. 3.3 mL of Genvoy-ILM reagent was loaded into a separate Luer lock syringes and all bubbles were removed by gentle tapping. The Genvoy-ILM syringe was then attached to the organic inlet of the cartridge. LNPs were then generated and collected into a 15 mL conical tube. The process was repeated for the remaining two mRNAs and for a buffer only LNP control (empty). Immediately after LNPs were generated, the samples were loaded into 10K dialysis cartridges, submerged into 1×DPBS (Ca^2+ and Mg^2+-free) to reduce the ethanol concentration to <0.5%. After dialysis the LNPs were recovered from the dialysis cartridges and sterile filtered at 0.2 um. Size and polydispersity (FIG. 8A, 802) were measured using a Malvern Panalytical DLS by diluting 40 uL of LNPs into 360 uL of 1×DPBS. […] Encapsulation efficiency was measured using a RiboGreen assay following Precision Nanosystems recommended protocol using a BioTek Synergy H1 Plate Reader. The resultant encapsulation efficiencies are shown in Table 14, with an average of ˜85%.
(§2) To prepare lipid nanoparticles (LNPs), the mRNA stocks were thawed on ice. Nucleic acid concentrations were validated by absorbance at 260 nm using a NanoDrop. The mRNAs were then diluted to a final concentration of 0.35 mg/mL mRNA in Precision Nanosystem's dilution buffer. 10 mL of the dilute mRNAs were loaded into separate Luer lock syringes and all bubbles were removed by gentle tapping. A NanoAssemblr Ignite NxGen Cartridge was loaded into the cartridge slot of the Ignite instrument and one mRNA syringe was attached to the aqueous inlet of the cartridge. 3.3 mL of Genvoy-ILM reagent was loaded into a separate Luer lock syringes and all bubbles were removed by gentle tapping. The Genvoy-LM syringe was then attached to the organic inlet of the cartridge. LNPs were then generated and collected into a 15 mL conical tube. The process was repeated for the remaining mRNAs and for a buffer only LNP control (empty). Immediately after LNPs were generated, the samples were loaded into 10K dialysis cartridges, submerged into Ix DPBS (Ca^2+ and Mg^2+-free) to reduce the ethanol concentration to <0.5%. After dialysis the LNPs were recovered from the dialysis cartridges and sterile filtered at 0.2 um. Size and polydispersity (FIG. 12 and FIG. 13) were measured using a Malvern Panalytical DLS by diluting 40 uL of LNPs into 360 uL of 1×DPBS. […] Encapsulation efficiency was measured using a RiboGreen assay following Precision Nanosystems recommended protocol using a BioTek Synergy H1 Plate Reader. The resultant encapsulation efficiencies are shown in Table 18, with an average of ˜60%.
(§3) To prepare lipid nanoparticles (LNPs), the mRNA stocks are thawed on ice. Nucleic acid concentrations are validated by absorbance at 260 nm using a NanoDrop. The mRNAs are then diluted to a final concentration of 0.35 mg/mL mRNA in Precision Nanosystem's dilution buffer. 10 mL of the dilute mRNAs are loaded into separate Luer lock syringes and all bubbles are removed by gentle tapping. A NanoAssemblr Ignite NxGen Cartridge is loaded into the cartridge slot of the Ignite instrument and one mRNA syringe is attached to the aqueous inlet of the cartridge. 3.3 mL of Genvoy-ILM reagent is loaded into a separate Luer lock syringes and all bubbles are removed by gentle tapping. The Genvoy-ILM syringe is then attached to the organic inlet of the cartridge. […]

[2] = LNP encapsulation efficiency, RiboGreen assay; assay type: physicochemical; details: mRNA LNPs, Example 6
Protocol: as §1, §2, §3

total IgG = experiment: Total sera IgG by radial immunodiffusion after IM or SQ vaccination with OVA mRNA LNPs; assay type: in vivo, dairy cows; details: for Serum IgG Concentration: one line per animal replicate
Protocol: (§4) Bovine nucleic acid vaccination protocols (SQ and IM) were assessed in vivo in the dairy cows through the quantification of the adaptive immune response following inoculation with ovalbumin (OVA). Immune response was assessed by quantifying total IgG and OVA-specific IgG over a 28-day period after vaccination. Both SQ and IM vaccination provided a robust immune response, with IM vaccination providing a higher total immune response than SQ vaccination.
(§5) Dairy cows were dried off for a period of eight days prior to vaccination. Each vaccine formulation was administered either by IM or SQ injection to three animals. In total, 15 animals were vaccinated with LNPs containing mRNA and 6 animals were vaccinated with empty LNPs. Intramuscular injections were delivered into the cow's right neck muscle by veterinary-trained staff using an 18-gauge 1-1.5″ needle. Subcutaneous injections were delivered into the cow's right shoulder by veterinary-trained staff using an 18-gauge 0.5-0.75″ needle. Total blood samples (˜20 mL) were collected by veterinary-trained staff. Samples were collected into 10 mL vacutainer tubes (2×10 mL) from the coccygeal vein (tail vein) by needle puncture. Harvested blood samples were then processed via ultracentrifugation for serum collection. Isolated serum samples were aliquoted, labeled and stored in cryogenic tubes at −20° C. until use.
Sera samples were thawed on ice and total IgG was quantified using Triple J Farms' Ig Radial Immunodiffusion (RID) kits (Cat No. 728411) following the manufacturers recommended protocol.

ovalbumin (OVA) = experiment: OVA-specific IgG ELISA of sera after IM or SQ vaccination; assay type: in vivo, dairy cows; details: one line per animal replicate
Protocol: as §4, §5
Sera samples were thawed on ice and total IgG was quantified using NovateinBio's Bovine OVA sIgG Antibody ELISA Kit (Cat No. BG-BVN11731) following the manufacturer's recommended protocol. Each of the animals vaccinated with a construct show a demonstrable OVA-specific IgG response over the 28-day test period.

B1: ARK011: mRNA: SP + Ova + TM/C, membrane-anchored OVA; SEQ ID NO: 16673 (nucleic acid)
chain: ATGTTCGTGTTCCTCGTGCTCCTGCCCCTCGTCTCCAGCCAGTGCGTGGGGTCCATAGGGGCTGCTTCTATGGAGTTCTGTTTTGATGTTTTCAAGGAACTGAAGGTTCACCATGCTAACGAGAACATCTTTTACTGTCCAATAGCCATCATGAGTGCGCTTGCTATGGTTTATTTGGGTGCAAAAGATTCTACTCGCACTCAGATTAATAAGGTCGTTAGATTCGACAAGCTTCCAGGGTTTGGAGACAGTATTGAGGCCCAATGTGGAACGTCAGTCAACGTCCATTCTTCTCTGCGGGACATTCTCAACCAAATAACGAAGCCAAACGACGTGTATTCCTTCTCACTCGCGTCACGGCTGTATGCTGAAGAAAGGTATCCTATCTTGCCAGAATATCTCCAGTGCGTCAAGGAGTTGTATCGAGGCGGACTGGAACCGATCAACTTTCAGACTGCAGCCGACCAGGCCCGCGAACTGATCAACAGCTGGGTCGAGTCTCAGACCAATGGGATCATACGCAATGTGTTGCAACCGAGTAGTGTCGACTCTCAGACGGCTATGGTCTTGGTGAACGCTATAGTCTTCAAAGGTCTGTGGGAGAAGACCTTCAAGGATGAAGACACACAAGCGATGCCATTCAGAGTCACCGAACAAGAAAGCAAACCCGTCCAAATGATGTACCAAATTGGGCTTTTTCGGGTGGCCTCTATGGCCTCTGAGAAAATGAAAATATTGGAACTGCCCTTCGCCAGCGGCACAATGAGTATGTTGGTCCTTCTTCCAGATGAAGTCTCAGGTCTCGAACAGCTTGAGTCTATCATTAACTTTGAGAAACTCACTGAATGGACTTCTTCCAATGTGATGGAAGAACGAAAAATCAAAGTCTACCTGCCCCGAATGAAGATGGAAGAGAAATATAATTTGACATCAGTTCTGATGGCCATGGGAATCACAGACGTGTTTTCATCCTCTGCGAATCTGTCTGGCATATCTTCCGCAGAATCTCTCAAGATCAGTCAAGCCGTCCACGCGGCCCATGCTGAGATAAATGAGGCGGGCAGAGAGGTGGTGGGGTCCGCCGAAGCTGGAGTCGACGCAGCTTCTGTCAGTGAAGAATTTAGGGCCGATCATCCTTTCCTGTTCTGCATAAAGCACATAGCTACGAACGCTGTGCTTTTCTTTGGCAGATGCGTTTCTCCACCCTGGTACATCTGGCTGGGCTTCATCGCAGGACTGATCGCCATCGTCATGGTCACCATAATGCTCTGTTGCATGACCTCCTGCTGTAGCTGCCTGAAAGGCTGTTGCAGCTGCGGGAGCTGCTGCAAATTCGACGAAGACGATAGCGAACCTGTGCTCAAAGGGGTGAAGTTGCATTACACATAGTGA
modifications: listed as DNA
For B1, the PDI [1] was 0.1665, the “Z-avg.” value [1] was 97.79 nm·days and the Encapsulation efficiency [2] was 83%. For the same molecule, the “Serum IgG Concentration” value (total IgG; IM injection, Day 0, dairy cows, dose 348-468 ug) was 5,261 mg/dL and 5,203 mg/dL and 6,150 mg/dL, the “Serum IgG Concentration” value (total IgG; IM injection, Day 14, dairy cows, dose 348-468 ug) was 4,902 mg/dL and 5,664 mg/dL and 6,716 mg/dL and the “Serum IgG Concentration” value (total IgG; IM injection, Day 28, dairy cows, dose 348-468 ug) was 3,702 mg/dL and 4,145 mg/dL and 3,794 mg/dL. The “Serum IgG Concentration” value (total IgG; SQ injection, Day 0, dairy cows, dose 353-468 ug) was 4,956 mg/dL and 5,599 mg/dL and 4,964 mg/dL, the “Serum IgG Concentration” value (total IgG; SQ injection, Day 14, dairy cows, dose 353-468 ug) was 4,815 mg/dL and 4,777 mg/dL and 6,139 mg/dL and the “Serum IgG Concentration” value (total IgG; SQ injection, Day 21, dairy cows, dose 353-468 ug) was 5,722 mg/dL and 4,034 mg/dL and 7,379 mg/dL. The “Serum IgG Concentration” value (total IgG; SQ injection, Day 28, dairy cows, dose 353-468 ug) was 4,877 mg/dL and 4,344 mg/dL and 3,730 mg/dL, the “total sera IgG immune response, treated groups normalized against the empty groups” value (total IgG; dairy cows, 3 animals per construct, 28-day test period, FIG. 9) was “robust and prolonged immune response across all 3 animals” and the “OVA-specific IgG, Absorbance (OD450)” value (ovalbumin (OVA); IM injection, Day 0, dairy cows) was 0.327 OD450 and 0.591 OD450 and 1.937 OD450. The “OVA-specific IgG, Absorbance (OD450)” value (ovalbumin (OVA); IM injection, Day 14, dairy cows) was 0.64 OD450 and 0.616 OD450 and 1.817 OD450, the “OVA-specific IgG, Absorbance (OD450)” value (ovalbumin (OVA); IM injection, Day 21, dairy cows) was 0.757 OD450 and 0.513 OD450 and 2.024 OD450 and the “OVA-specific IgG, Absorbance (OD450)” value (ovalbumin (OVA); IM injection, Day 28, dairy cows) was 0.626 OD450 and 0.603 OD450 and 1.663 OD450. The “OVA-specific IgG, Absorbance (OD450)” value (ovalbumin (OVA); SQ injection, Day 0, dairy cows) was 1.004 OD450 and 0.952 OD450 and 0.756 OD450, the “OVA-specific IgG, Absorbance (OD450)” value (ovalbumin (OVA); SQ injection, Day 14, dairy cows) was 1.16 OD450 and 0.955 OD450 and 1.085 OD450 and the “OVA-specific IgG, Absorbance (OD450)” value (ovalbumin (OVA); SQ injection, Day 21, dairy cows) was 1.036 OD450 and 0.7 OD450 and 1.063 OD450. For the same molecule, the “OVA-specific IgG, Absorbance (OD450)” value (ovalbumin (OVA); SQ injection, Day 28, dairy cows) was 0.916 OD450 and 0.68 OD450 and 0.704 OD450.
